From the supplement of paper PMC10126150
± gives the standard deviation of the averaged measurements.

Test system: ATP
Test: switch fluorescence ratio, 500 uM ATP over buffer (Cy3 cluster intensity, sum of 5 cycles each) (fold (ratio)); higher = stronger signal-on switching upon ATP binding; sequences stand for … in TCGTCGGCAGCGTCAGATGTGTATAAGAGACAGTTTTTTTTTTTTTTTTTTTTTTTTT…TC
Conditions: aptamer strand: ATP DNA aptamer (quencher-CACCTGGGGGAGTATTGCGGAGGAAGG + anchor), 100 nM annealed; ATP concentration: 500 uM
Outline: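 After annealing to 100 nM quencher-labelled ATP aptamer, Cy3-labelled switching-strand clusters on a modified Illumina MiSeq flow-cell were imaged in selection buffer. A second image followed after 15 min with 500 uM ATP at 22 °C, and five such buffer/ATP cycles were done, each separated by NaOH stripping and re-annealing. The fluorescence ratio, averaged per switch-domain sequence, is summed target-cycle over summed buffer-cycle Cy3 intensity per cluster, with clusters outside 100-1000 RFU excluded.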
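Note: ATP exposure 15 min at 22 °C before imaging.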

For TGTTCGGGTG, the switch fluorescence ratio was 1.05 ± 0.022.
TGTTCGTCGT showed a switch fluorescence ratio of 0.9693 ± 0.0039.
In the case of TGTTCTACAG, the switch fluorescence ratio is reported as 1 ± 0.02.
Sequence TGTTCTCAAA has a switch fluorescence ratio of 0.98346 ± 0.00079.
TGTTCTTTTT showed a switch fluorescence ratio of 0.993 ± 0.038.
Work on TGTTGACAGT yielded a switch fluorescence ratio of 1.01 ± 0.021.
TGTTGACTGA was tested, and the switch fluorescence ratio was 1.02 ± 0.023.
TGTTGAGTAT showed a switch fluorescence ratio of 0.9738 ± 0.0072.
TGTTGGACTA gave a switch fluorescence ratio of 0.9992 ± 0.0065.
TGTTGGAGCG was tested, and the switch fluorescence ratio was 0.969 ± 0.011.
With TGTTGGAGGA the switch fluorescence ratio was 0.994 ± 0.028.
With TGTTGGAGGC the switch fluorescence ratio was 0.9713 ± 0.0072.
Work on TGTTGGCCGG yielded a switch fluorescence ratio of 0.991 ± 0.026.
With TGTTGGCTTT the switch fluorescence ratio was 1.06 ± 0.022.
In the case of TGTTGGGAGA, the switch fluorescence ratio is reported as 1 ± 0.025.
Work on TGTTGGGGCG yielded a switch fluorescence ratio of 1.02 ± 0.069.
With TGTTGGGGGG the switch fluorescence ratio was 1.01 ± 0.057.
TGTTGGGGGT showed a switch fluorescence ratio of 0.962 ± 0.034.
Sequence TGTTGGGGTT has a switch fluorescence ratio of 1.01 ± 0.018.
TGTTGGGTGC showed a switch fluorescence ratio of 0.996 ± 0.037.
Sequence TGTTGGTGTC has a switch fluorescence ratio of 0.987 ± 0.07.
TGTTGGTTCG gave a switch fluorescence ratio of 0.97 ± 0.062.
With TGTTGTAATG the switch fluorescence ratio was 0.9974 ± 0.0033.
In the case of TGTTGTATGC, the switch fluorescence ratio is reported as 0.9617 ± 0.0042.
TGTTGTATTG showed a switch fluorescence ratio of 0.9761 ± 0.0066.
Sequence TGTTGTGGGA has a switch fluorescence ratio of 0.979 ± 0.019.
Work on TGTTGTGTAG yielded a switch fluorescence ratio of 0.977 ± 0.021.
TGTTGTTTGC gave a switch fluorescence ratio of 0.982 ± 0.014.
Work on TGTTGTTTGG yielded a switch fluorescence ratio of 1 ± 0.063.
TGTTTAAAAT gave a switch fluorescence ratio of 1.02 ± 0.046.
TGTTTAAATG showed a switch fluorescence ratio of 1.01 ± 0.026.
TGTTTAAGTT showed a switch fluorescence ratio of 1.02 ± 0.023.
Work on TGTTTAATGT yielded a switch fluorescence ratio of 1.01 ± 0.019.
TGTTTACAGC gave a switch fluorescence ratio of 0.997 ± 0.027.
For TGTTTATATC, the switch fluorescence ratio was 0.9856 ± 0.0076.
In the case of TGTTTATGTT, the switch fluorescence ratio is reported as 0.9975 ± 0.0064.
With TGTTTCGGAA the switch fluorescence ratio was 1.02 ± 0.038.
TGTTTCTCGA was tested, and the switch fluorescence ratio was 0.9619 ± 0.0041.
With TGTTTCTCGT the switch fluorescence ratio was 1.01 ± 0.015.
Work on TGTTTGAAGT yielded a switch fluorescence ratio of 0.989 ± 0.023.
Work on TGTTTGGAGG yielded a switch fluorescence ratio of 0.985 ± 0.022.
For TGTTTGGTGG, the switch fluorescence ratio was 0.968 ± 0.026.
In the case of TGTTTGTCTT, the switch fluorescence ratio is reported as 1 ± 0.069.
TGTTTGTGTA was tested, and the switch fluorescence ratio was 1.03 ± 0.022.
TGTTTGTTGT showed a switch fluorescence ratio of 1.03 ± 0.063.
For TGTTTTAATG, the switch fluorescence ratio was 0.988 ± 0.011.
Sequence TGTTTTCAGT has a switch fluorescence ratio of 0.975 ± 0.02.
With TGTTTTCTAG the switch fluorescence ratio was 0.99 ± 0.022.
In the case of TGTTTTGGGT, the switch fluorescence ratio is reported as 0.985 ± 0.039.
TGTTTTGTTG was tested, and the switch fluorescence ratio was 0.99 ± 0.016.
For TGTTTTTATA, the switch fluorescence ratio was 1.005 ± 0.0091.
Work on TGTTTTTGAG yielded a switch fluorescence ratio of 0.9888 ± 0.0034.
In the case of TGTTTTTGTA, the switch fluorescence ratio is reported as 1.07 ± 0.13.
In the case of TTAAAAAAGG, the switch fluorescence ratio is reported as 1.01 ± 0.087.
For TTAAAAAGAT, the switch fluorescence ratio was 1.04 ± 0.051.
Sequence TTAAAAAGGA has a switch fluorescence ratio of 0.986 ± 0.016.
In the case of TTAAAAAGGT, the switch fluorescence ratio is reported as 1 ± 0.021.
With TTAAAAATCA the switch fluorescence ratio was 0.984 ± 0.025.
TTAAAAATGA gave a switch fluorescence ratio of 1.02 ± 0.021.
TTAAAAATGC showed a switch fluorescence ratio of 1.02 ± 0.011.
Sequence TTAAAAGAGA has a switch fluorescence ratio of 1.04 ± 0.0028.
Sequence TTAAAAGCAG has a switch fluorescence ratio of 1.016 ± 0.0045.
With TTAAAAGCTT the switch fluorescence ratio was 1.05 ± 0.024.
TTAAAAGGAA was tested, and the switch fluorescence ratio was 1.004 ± 0.0034.
TTAAAAGGTT gave a switch fluorescence ratio of 1.01 ± 0.029.
With TTAAAATGGG the switch fluorescence ratio was 1.01 ± 0.043.
Work on TTAAAATGTC yielded a switch fluorescence ratio of 0.992 ± 0.014.
TTAAACAAGG gave a switch fluorescence ratio of 1.01 ± 0.012.
With TTAAAGAATT the switch fluorescence ratio was 1.003 ± 0.0084.
Sequence TTAAAGACGG has a switch fluorescence ratio of 1.06 ± 0.11.
Work on TTAAAGAGAA yielded a switch fluorescence ratio of 1 ± 0.013.
TTAAAGATAT gave a switch fluorescence ratio of 1.23 ± 0.32.
Sequence TTAAAGCAGT has a switch fluorescence ratio of 1.56 ± 0.47.
Work on TTAAAGCTTA yielded a switch fluorescence ratio of 1.02 ± 0.04.
With TTAAAGGGCG the switch fluorescence ratio was 0.976 ± 0.046.
For TTAAAGTCGT, the switch fluorescence ratio was 1.01 ± 0.026.
TTAAAGTGCC gave a switch fluorescence ratio of 1.01 ± 0.0072.
Sequence TTAAATAGCG has a switch fluorescence ratio of 0.982 ± 0.036.
TTAAATTTCG gave a switch fluorescence ratio of 1.003 ± 0.0035.
Sequence TTAACACTCC has a switch fluorescence ratio of 1.2 ± 0.02.
TTAACATGTG was tested, and the switch fluorescence ratio was 0.9593 ± 0.0034.
TTAACATGTT was tested, and the switch fluorescence ratio was 0.996 ± 0.022.
With TTAACATTAC the switch fluorescence ratio was 1.38 ± 0.11.
TTAACCGGGA gave a switch fluorescence ratio of 1.02 ± 0.059.
With TTAACTGCTT the switch fluorescence ratio was 0.9894 ± 0.0088.
